Like-named read-outs stand apart in the source and are kept apart here. Where a SMILES comes first, the peptide text is derived from it. Bridges are numbered along the chain shown (N, C = ends). [ ]: non-standard residue; d: D form. The star is where a group is joined. DOTA = O=C(O)CN1CCN(CC(=O)O)CCN(CC(=O)*)CCN(CC(=O)O)CC1; 2Nal = N[C@@H](Cc1ccc2ccccc2c1)C(=O)O; Cit = NC(=O)NCCC[C@H](N)C(=O)O
Assay: Ex vivo biodistribution in U87-CXCR4 + tumour-bearing mice
Parameters: species or system BALB/c nude mice
Conditions: mouse; for tissue to tissue ratio at 24 h / tissue uptake dose at 1 h / tissue uptake dose at 4 h / tissue uptake dose at 24 h / tissue uptake dose at 168 h / SUV at 1 h / SUV at 4 h / SUV at 24 h / SUV at 168 h: female, BALB/c nude, iv, 1.5 MBq, total radioactivity; for tissue uptake dose at 1 h / tissue uptake dose at 4 h / tissue uptake dose at 24 h / tissue uptake dose at 168 h: %IA
Method: For the generation of the subcutaneous GBM xenograft model, BALB/c nude mice (between 8 and 12 weeks old) were anesthetised with 2.5% isoflurane in O2 at a flow rate of 0.2 L/min and subcutaneously injected on the right shoulder with 3 × 10^6 U87-CXCR4 + cells resuspended in a 1:1 mixture of PBS and Cultrex BME (R&D Systems, Bio-Techne, Minnesota, US). Tumours were left to grow for ten days before the start of the experiment. Tumour volumes were calculated as length × width × height. Three days before the experiment, the mean tumour volumes of all mice were 255 ± 119 mm^3.
The pharmacokinetic profile of [^177Lu]Lu-POL3026 was evaluated in female BALB/c nude mice with subcutaneous xenografts of U87-CXCR4 + tumours.
All animals were anesthetised with 2.5% isoflurane in O2 at a flow rate of 1 L/min and intravenously (IV) injected with 1.5 MBq of [^177Lu]Lu-POL3026 via a tail vein (radiolabelled with a Am of 53.1 ± 0.55 MBq/nmol). The mice were sacrificed by an overdose of pentobarbital (200 µL of 60 mg/mL) at 1-, 4-, 24- and 168 h post-injection (p.i.) (n = 3–4 per time point), followed by cardiac puncture. Organs of interest were collected in tarred tubes and weighed. The activity in the different organs was measured in the automated gamma counter described above. For the calculation of the total activity in the blood, bone, and muscle, the masses were assumed to be 7, 12 and 40% of the total body mass, respectively. Data is shown as standardised uptake value (SUV), calculated using the following equation:
SUV = [Activity in organ (cpm) / Organ weight (g)] / [(Injected activity (cpm) / Total body weight (g)].

N=C(N)NCCC[C@@H]1NC(=O)[C@@H]2CSSC[C@H](NC(=O)[C@H](Cc3ccc4ccccc4c3)NC(=O)[C@H](CCCNC(=N)N)NC(=O)[C@H](CCCNC(=N)N)NC(=O)[C@H]3CCCN3C(=O)CNC1=O)C(=O)N[C@@H](Cc1ccc(O)cc1)C(=O)N[C@@H](CCC(N)=O)C(=O)N[C@@H](CCCCNC(=O)CN1CCN(CC(=O)O)CCN(CC(=O)O)CCN(CC(=O)O)CC1)C(=O)N1CCC[C@@H]1C(=O)N1CCC[C@H]1C(=O)N[C@@H](Cc1ccc(O)cc1)C(=O)N[C@@H](CCCNC(=N)N)C(=O)N[C@@H](CCCNC(N)=O)C(=O)N2 [[^177Lu]Lu-DOTA-POL3026, metal not drawn] (cyclo(RR[2Nal]CYQK(DOTA)[dP]PYR[Cit]CRG[dP]); disulfide 4-13)
tissue to tissue ratio at 24 h (24 h p.i., read-out: tumour-to-kidney ratio): 0.7
tissue uptake dose at 1 h (Blood): 15.2 %ID
tissue uptake dose at 4 h (Blood): 3.73 %ID
tissue uptake dose at 24 h (Blood): 0.14 %ID
tissue uptake dose at 168 h (Blood): 0.04 %ID
tissue uptake dose at 1 h (Blood on tissue paper): 3.79 %ID
tissue uptake dose at 4 h (Blood on tissue paper): 1.56 %ID
tissue uptake dose at 24 h (Blood on tissue paper): 0.51 %ID
tissue uptake dose at 168 h (Blood on tissue paper): 0.2 %ID
tissue uptake dose at 1 h (Bone): 8.81 %ID
tissue uptake dose at 4 h (Bone): 14.4 %ID
tissue uptake dose at 24 h (Bone): 7.05 %ID
tissue uptake dose at 168 h (Bone): 2.14 %ID
tissue uptake dose at 1 h (Brain): 0.09 %ID
tissue uptake dose at 4 h (Brain): 0.03 %ID
tissue uptake dose at 24 h (Brain): 0.01 %ID
tissue uptake dose at 1 h (Carcass): 28.5 %ID
tissue uptake dose at 4 h (Carcass): 18.3 %ID
tissue uptake dose at 24 h (Carcass): 12.8 %ID
tissue uptake dose at 168 h (Carcass): 3.02 %ID
tissue uptake dose at 1 h (Heart): 0.71 %ID
tissue uptake dose at 4 h (Heart): 0.22 %ID
tissue uptake dose at 24 h (Heart): 0.09 %ID
tissue uptake dose at 168 h (Heart): 0.01 %ID
tissue uptake dose at 1 h (Intestines): 5.63 %ID
tissue uptake dose at 4 h (Intestines): 3.76 %ID
tissue uptake dose at 24 h (Intestines): 2.14 %ID
tissue uptake dose at 168 h (Intestines): 0.59 %ID
tissue uptake dose at 1 h (Kidneys): 4.03 %ID
tissue uptake dose at 4 h (Kidneys): 4.99 %ID
tissue uptake dose at 24 h (Kidneys): 3.65 %ID
tissue uptake dose at 168 h (Kidneys): 0.61 %ID
tissue uptake dose at 1 h (Liver): 31.6 %ID
tissue uptake dose at 4 h (Liver): 39.8 %ID
tissue uptake dose at 24 h (Liver): 39.2 %ID
tissue uptake dose at 168 h (Liver): 14.2 %ID
tissue uptake dose at 1 h (Lungs): 2.72 %ID
tissue uptake dose at 4 h (Lungs): 1.87 %ID
tissue uptake dose at 24 h (Lungs): 0.59 %ID
tissue uptake dose at 168 h (Lungs): 0.06 %ID
tissue uptake dose at 1 h (Muscle): 9.87 %ID
tissue uptake dose at 4 h (Muscle): 4.89 %ID
tissue uptake dose at 24 h (Muscle): 3.78 %ID
tissue uptake dose at 168 h (Muscle): 0.57 %ID
tissue uptake dose at 1 h (Pancreas): 0.3 %ID
tissue uptake dose at 4 h (Pancreas): 0.16 %ID
tissue uptake dose at 24 h (Pancreas): 0.1 %ID
tissue uptake dose at 168 h (Pancreas): 0.02 %ID
tissue uptake dose at 1 h (Spleen): 4.01 %ID
tissue uptake dose at 4 h (Spleen): 2.02 %ID
tissue uptake dose at 24 h (Spleen): 1.61 %ID
tissue uptake dose at 168 h (Spleen): 0.72 %ID
tissue uptake dose at 1 h (Stomach): 0.35 %ID
tissue uptake dose at 4 h (Stomach): 0.31 %ID
tissue uptake dose at 24 h (Stomach): 0.17 %ID
tissue uptake dose at 168 h (Stomach): 0.03 %ID
tissue uptake dose at 1 h (Tail): 2.05 %ID
tissue uptake dose at 4 h (Tail): 1.75 %ID
tissue uptake dose at 24 h (Tail): 1.7 %ID
tissue uptake dose at 168 h (Tail): 0.53 %ID
tissue uptake dose at 1 h (Tumour): 1.54 %ID
tissue uptake dose at 4 h (Tumour): 1.01 %ID
tissue uptake dose at 24 h (Tumour): 1.46 %ID
tissue uptake dose at 168 h (Tumour): 0.29 %ID
SUV at 1 h (Blood): 2.17 SUV
SUV at 4 h (Blood): 0.53 SUV
SUV at 24 h (Blood): 0.02 SUV
SUV at 1 h (Bone): 0.73 SUV
SUV at 4 h (Bone): 1.2 SUV
SUV at 24 h (Bone): 0.59 SUV
SUV at 168 h (Bone): 0.18 SUV
SUV at 1 h (Brain): 0.05 SUV
SUV at 4 h (Brain): 0.02 SUV
SUV at 24 h (Brain): 0.01 SUV
SUV at 1 h (Heart): 1.33 SUV
SUV at 4 h (Heart): 0.46 SUV
SUV at 24 h (Heart): 0.17 SUV
SUV at 168 h (Heart): 0.02 SUV
SUV at 1 h (Kidneys): 2.57 SUV
SUV at 4 h (Kidneys): 3.34 SUV
SUV at 24 h (Kidneys): 2.41 SUV
SUV at 168 h (Kidneys): 0.38 SUV
SUV at 1 h (Liver): 5.27 SUV
SUV at 4 h (Liver): 7.32 SUV
SUV at 24 h (Liver): 6.46 SUV
SUV at 168 h (Liver): 2.3 SUV
SUV at 1 h (Lungs): 4.74 SUV
SUV at 4 h (Lungs): 3.24 SUV
SUV at 24 h (Lungs): 1.02 SUV
SUV at 168 h (Lungs): 0.08 SUV
SUV at 1 h (Muscle): 0.25 SUV
SUV at 4 h (Muscle): 0.12 SUV
SUV at 24 h (Muscle): 0.09 SUV
SUV at 168 h (Muscle): 0.01 SUV
SUV at 1 h (Pancreas): 0.3 SUV
SUV at 4 h (Pancreas): 0.19 SUV
SUV at 24 h (Pancreas): 0.13 SUV
SUV at 168 h (Pancreas): 0.02 SUV
SUV at 1 h (Spleen): 8.67 SUV
SUV at 4 h (Spleen): 6.77 SUV
SUV at 24 h (Spleen): 4.83 SUV
SUV at 168 h (Spleen): 1.84 SUV
SUV at 1 h (Tumour): 1.39 SUV
SUV at 4 h (Tumour): 1.74 SUV
SUV at 24 h (Tumour): 1.79 SUV
SUV at 168 h (Tumour): 0.32 SUV
tissue to tissue ratio at 24 h (tumour-to-blood ratio): 89
tissue to tissue ratio at 24 h (tumour-to-liver ratio): 0.3
tissue to tissue ratio at 24 h (tumour-to-muscle ratio): 19
%IA, Brain: 0.00 %IA
SUV, Blood: 0.00
SUV, Brain: 0.00
SUV, Tumour: 1.9
